From publication PMC10397247 come the findings set out here.

One assay addresses T1, Core_IIIN-es_KEKE.
T1 chain: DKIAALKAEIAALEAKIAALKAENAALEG
In words: two-hybrid library CCmax.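 Further: natural log of median RNA to DNA barcode read ratio; higher means stronger binding.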

The next assay has as its target T2, Core_IIII-es_KEEE.
T2 chain: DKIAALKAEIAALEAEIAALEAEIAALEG
Briefly: two-hybrid library CCmax.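 Further: natural log of median RNA to DNA barcode read ratio; higher means stronger binding.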 Particulars: mean of both orientations.

The target of a further assay is T3, Core_IINN-es_KEKE.
T3 chain: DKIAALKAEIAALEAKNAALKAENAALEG
In words: two-hybrid library CCmax.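 Further: natural log of median RNA to DNA barcode read ratio; higher means stronger binding.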 Conditions: mean of both orientations.

In another assay the target is T4, 4H1629-bH.
T4 chain: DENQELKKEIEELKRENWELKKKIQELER
Briefly: two-hybrid library CCNG1.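 Further: natural log of median RNA to DNA barcode read ratio; higher means stronger binding.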

Another assay concerns the target T5, 4H741-bH.
T5 chain: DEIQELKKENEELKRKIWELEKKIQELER
In words: two-hybrid library CCNG1.

The target in another assay is T6, O8-bN.
T6 chain: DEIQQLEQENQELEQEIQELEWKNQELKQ
Briefly: two-hybrid library CCNG1.

For another assay, the target named is T7, 4H584-bH.
T7 chain: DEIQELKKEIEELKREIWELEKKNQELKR
In words: two-hybrid library CCNG1.

Another assay has as its target T8, 4H3189-bH.
T8 chain: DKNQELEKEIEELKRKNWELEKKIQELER
In words: two-hybrid library CCNG1.

The next assay has as its target T9, 4H3613-bH.
T9 chain: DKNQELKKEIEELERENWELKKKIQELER
In words: two-hybrid library CCNG1.

In a further assay the target is T10, 4H3129-bH.
T10 chain: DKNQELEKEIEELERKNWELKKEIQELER
Briefly: two-hybrid library CCNG1.

Another assay has as its target T11, P8A-bN.
T11 chain: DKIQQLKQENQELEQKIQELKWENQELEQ
In words: two-hybrid library CCNG1.

The target in the next assay is T12, 4H3858-bH.
T12 chain: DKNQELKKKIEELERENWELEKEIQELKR
Briefly: two-hybrid library CCNG1.

The target of a further assay is T13, 4H3414-bH.
T13 chain: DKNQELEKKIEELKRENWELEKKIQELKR
Briefly: two-hybrid library CCNG1.

The target of another assay is T14, P5bH1.
T14 chain: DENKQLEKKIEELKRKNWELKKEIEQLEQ
In words: two-hybrid library CCNG1.

A further assay addresses T15, 4H3817-bH.
T15 chain: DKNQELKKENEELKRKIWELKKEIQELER
In words: two-hybrid library CCNG1.

The next assay concerns the target T16, 4H3974-bH.
T16 chain: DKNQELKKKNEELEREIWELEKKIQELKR
In words: two-hybrid library CCNG1.

In a further assay the target is T17, 4H1393-bH.
T17 chain: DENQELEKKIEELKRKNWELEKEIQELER
Briefly: two-hybrid library CCNG1.

For a further assay, the target named is T18, 4H1710-bH.
T18 chain: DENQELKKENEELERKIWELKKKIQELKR
Briefly: two-hybrid library CCNG1.

For the next assay, the target named is T19, 4H1804-bH.
T19 chain: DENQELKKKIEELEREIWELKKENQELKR
Briefly: two-hybrid library CCNG1.

In another assay the target is T20, 4H3628-bH.
T20 chain: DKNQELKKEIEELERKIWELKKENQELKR
In words: two-hybrid library CCNG1.

A further assay has as its target T21, 4H570-bH.
T21 chain: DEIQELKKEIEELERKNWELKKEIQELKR
In words: two-hybrid library CCNG1.

A further assay deals with T22, 4H1348-bH.
T22 chain: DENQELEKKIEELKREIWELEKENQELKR
In words: two-hybrid library CCNG1.

In a further assay the target is T23, 4H1222-bH.
T23 chain: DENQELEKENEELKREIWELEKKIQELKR
Briefly: two-hybrid library CCNG1.

A further assay has as its target T24, 4H619-bH.
T24 chain: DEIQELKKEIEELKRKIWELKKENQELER
Briefly: two-hybrid library CCNG1.

The target in a further assay is T25, 4H1338-bH.
T25 chain: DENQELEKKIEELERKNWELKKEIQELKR
In words: two-hybrid library CCNG1.

The target of a further assay is T26, 4H3638-bH.
T26 chain: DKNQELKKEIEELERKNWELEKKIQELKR
In words: two-hybrid library CCNG1.

In another assay the target is T27, 4H850-bH.
T27 chain: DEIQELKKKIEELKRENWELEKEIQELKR
Briefly: two-hybrid library CCNG1.

For another assay, the target named is T28, 4H3631-bH.
T28 chain: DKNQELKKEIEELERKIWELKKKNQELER
In words: two-hybrid library CCNG1.

The next assay deals with T29, 4H1449-bH.
T29 chain: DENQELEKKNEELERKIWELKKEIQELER
Briefly: two-hybrid library CCNG1.

The target in another assay is T30, 4H1373-bH.
T30 chain: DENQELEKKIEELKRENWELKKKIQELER
Briefly: two-hybrid library CCNG1.

The next assay deals with T31, 4H906-bH.
T31 chain: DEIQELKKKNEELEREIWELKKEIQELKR
In words: two-hybrid library CCNG1.

Another assay has as its target T32, 4H1359-bH.
T32 chain: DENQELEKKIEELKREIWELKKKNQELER
In words: two-hybrid library CCNG1.

A further assay deals with T33, 4H1985-bH.
T33 chain: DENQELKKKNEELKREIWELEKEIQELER
In words: two-hybrid library CCNG1.

In a further assay the target is T34, 4H1899-bH.
T34 chain: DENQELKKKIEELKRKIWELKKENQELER
In words: two-hybrid library CCNG1.

The next assay deals with T35, 4H1544-bH.
T35 chain: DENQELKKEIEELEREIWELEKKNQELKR
In words: two-hybrid library CCNG1.

For a further assay, the target named is T36, 4H3172-bH.
T36 chain: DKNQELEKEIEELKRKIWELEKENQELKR
In words: two-hybrid library CCNG1.

B1: Core_IIIN-es_EKEK (peptide)
chain: DEIAALEAKIAALKAEIAALEAKNAALKG
The molecule B1 had an interaction score in the assay with Core_IIIN-es_KEKE of 2.11.

B2: Core_IIII-es_EKKK (peptide)
chain: DEIAALEAKIAALKAKIAALKAKIAALKG
In the case of B2, the interaction score in the assay with Core_IIII-es_KEEE is 1.95.

B3: Core_IINN-es_EKEK (peptide)
chain: DEIAALEAKIAALKAENAALEAKNAALKG
In turn, B3 yielded an interaction score with Core_IINN-es_KEKE of 2.27.

B4: 4H1222-bH (peptide)
chain: DENQELEKENEELKREIWELEKKIQELKR
On to B4, for which the interaction score was -0.0755 in the assay with 4H1629-bH; -2.48 with 4H741-bH; -2.96 with O8-bN; 0.714 in the assay with 4H584-bH; -1.2 with 4H3189-bH; -1.34 in the assay with 4H3613-bH. The interaction score with 4H3129-bH was 0.793; with P8A-bN, 2.04; with 4H3858-bH, -0.605; with 4H3414-bH, 0.0236; in the assay with P5bH1, 0.361; with 4H3817-bH it was 1.69. For the same molecule, the interaction score was 1.38 in the assay with 4H3974-bH; -0.624 with 4H1393-bH; 2.16 in the assay with 4H1710-bH; 0.345 with 4H1804-bH; 0.758 with 4H3628-bH; 0.693 with 4H570-bH. The interaction score in the assay with 4H1348-bH was -0.0221; in the assay with 4H1222-bH, 0.735; in the assay with 4H619-bH, -1.4; with 4H1338-bH, 0.196; with 4H3638-bH it was -0.0664; with 4H850-bH, 0.372. For the same molecule, the interaction score was 0.426 with 4H3631-bH; 1.19 with 4H1449-bH; -0.384 with 4H1373-bH; -0.362 in the assay with 4H906-bH; 0.083 in the assay with 4H1359-bH; 1.24 in the assay with 4H1985-bH. Moreover, the interaction score with 4H1899-bH was 0.852; in the assay with 4H1544-bH, -2.53; with 4H3172-bH, -0.665.
